# T1: mouse CRFR2β (mouse), Q60748
# T1 chain: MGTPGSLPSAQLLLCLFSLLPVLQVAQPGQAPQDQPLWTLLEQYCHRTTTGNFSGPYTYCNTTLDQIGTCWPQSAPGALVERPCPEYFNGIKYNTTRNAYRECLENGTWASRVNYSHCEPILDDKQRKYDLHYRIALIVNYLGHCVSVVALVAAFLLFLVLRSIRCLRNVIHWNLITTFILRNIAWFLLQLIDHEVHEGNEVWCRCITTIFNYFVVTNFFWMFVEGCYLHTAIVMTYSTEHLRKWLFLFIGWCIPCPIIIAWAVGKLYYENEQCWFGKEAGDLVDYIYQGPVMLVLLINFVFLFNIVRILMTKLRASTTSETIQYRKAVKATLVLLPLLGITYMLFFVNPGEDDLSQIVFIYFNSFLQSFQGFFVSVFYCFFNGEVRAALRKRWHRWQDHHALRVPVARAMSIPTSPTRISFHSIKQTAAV
# T2: rat CRFBP C-terminally fused with a His6 sequence (rat), P24388
# T2 chain: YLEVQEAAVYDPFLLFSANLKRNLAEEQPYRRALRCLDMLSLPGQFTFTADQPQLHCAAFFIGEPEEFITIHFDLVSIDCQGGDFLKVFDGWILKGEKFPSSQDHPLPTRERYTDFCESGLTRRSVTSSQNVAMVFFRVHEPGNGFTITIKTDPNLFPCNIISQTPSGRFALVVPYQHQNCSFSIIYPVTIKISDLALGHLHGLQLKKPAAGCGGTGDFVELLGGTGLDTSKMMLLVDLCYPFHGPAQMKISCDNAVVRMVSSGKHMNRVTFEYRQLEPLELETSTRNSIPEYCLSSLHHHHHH
# T3: rat CRFR1α (rat), P35353
# T3 chain: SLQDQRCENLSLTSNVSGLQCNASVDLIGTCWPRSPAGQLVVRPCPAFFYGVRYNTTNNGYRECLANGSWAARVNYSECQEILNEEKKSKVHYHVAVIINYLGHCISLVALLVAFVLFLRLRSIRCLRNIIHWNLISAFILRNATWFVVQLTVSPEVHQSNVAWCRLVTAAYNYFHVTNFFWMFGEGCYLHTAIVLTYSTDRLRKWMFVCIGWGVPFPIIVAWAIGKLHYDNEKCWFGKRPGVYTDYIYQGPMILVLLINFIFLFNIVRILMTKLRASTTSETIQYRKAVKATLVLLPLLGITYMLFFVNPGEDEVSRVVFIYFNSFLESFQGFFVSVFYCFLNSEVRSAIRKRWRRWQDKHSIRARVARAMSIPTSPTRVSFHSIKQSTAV
# How the values were obtained:
# Assay in all cases: competition binding
# Conditions in all cases: modification not given
# [1] = target: T1, mouse CRFR2β (mouse), Q60748
# [2] = target: T2, rat CRFBP C-terminally fused with a …
# rat CRFR1α (rat), P35353 = target: T3, rat CRFR1α (rat), P35353
binder,measurement,setting,value
SQEPPISLDLTFHLLREVLEMTKADQLAQQAHSNRKLLDIA [ovine corticotropin-releasing factor],IC50,[1],0.16 µM
same,IC50,[2],0.45 µM
same,IC50,"rat CRFR1α (rat), P35353",0.0018 µM

# Reference: US20080221021A1, “Novel Corticotropin-Releasing Factor Receptor 1 (Crfr1) Agonist” (Max-Planck-Gesellschaft Zur Forderung Der, priority 2004, published 2008)
